The values below come from PMC10522976.

The experiment deals with Cynomolgus MSLN (cynomolgus macaque).

B1: VH 3C9 (human antibody heavy chain variable domain) (VHH)
VHH: DVQLVESGGGVVQPGRSLRLSCAASGFTFSSYAMHWVRQAPGKGLEWVSSISGNSLYKYYADSVKGRFTISRDDSTNTLYLQMNSLRAEDTATYYCTRHWAVGNWGQGTLVTVSS
By Kd is commonly meant a measure of binding affinity in units of concentration. As to B1, the Kd is > 100 nM.
